Experiment: label from the status in PepcDB records
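Further: failed if final PepcDB status was selected cloned or expressed and not failed if soluble or beyond.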

Row | Sequence | protein production
1 | MDRDSSMQAKNLDAQCNPDLKMASANSETLASATHELKIMDVEGGALVDPDHIEEVETSMVIVVDDDDGDVAMVVEEDKHPMRDDPCIEDIMDDEHAPLVAELQSALNNPDDKQASEDPLLEDQEREPDAMSTKTEPSSDAESSHSYHDPMGLLERIEIHDPGDSQDDDDEDDESSNGGGVDGGMRRKMPRAQRWLLWMKRWPWILHEDSDGTLAFCLYCNISINVNNRSRHIQQHNVSLSHQERECNYLAFKKSEEETRGAISDNEIKHEFGTKSYVAAMKQKRISETEAFNNFNWLRWLRWHPWLERSMPTGTIGTCRICSVRMNVEFVYLRKRHETTKGHMEALRNLDSDKRSRKRKRSKSNSVTNSGGDEAEREKESEPEVGPEDAQDTPVVMMNGDVDSGDDPGKWCALIPDTNPQQCRCTLCNCTMAITSFLRHCKTRAHCHMLSTPAEKGSSDIRGIWAVFADMHPWLIADPEDPSIGYCSVCRKRFMYGNSEIKRKNHEKSEKHTLALASAKAGIEVGSADGRGGDNMDEEEAAASDQAQSSQTDDSEDNDDDNWSEIQKLGKGFAHKSSSEPRKATVRAGVRFYPWLCYSKDRKTQICKFCRVRFHNEAAKARHELSARHVKLVKQFKMRQAKLHQGTNTQTKHNAQDDEESQEQDEEYGEEEEDAEEDSQSNFDLGTVQARKTARADNKLFVKPIPATMKGKVMVWKGRFPWLSYKKNEQRGNYAWCKLCEVSLYLPSSKWASKHQRTSRHIRLRIDRKRNGGNPLKTSNKNSGEISTVVATASALASAEARQKAAMAELQAKYDWLDPDANDENHCHCRVCDSRLPIKVFYLRQHDASRKHVENKERQRANAAAAANAPSVSPTSTVDAERQESGMDKESENDMSVRSDGSTAEPLAKRSRRSMEVRRIIRALRDSMGKRQEERSQMDMARDMICSSFDIVTRLRTLERESVAHNESMAQAPPSVTVSPIKPPEPRHVMDLFFDSISPTMKSLPPDLAAEGKSKIMQLVCSLELRAMQRNATTPTPATVSASSKWPSSTTVTPVKTPPAPISAPLASVDADLHSSVVTTPHEYNNGQNNNNDKETVPKEPVTGASSAQVTINGSAKDLPENIRRILTSNQTQVTNRLETDSVRCVPLDKLTTQSRTNVNGRLSQGGTSEAPSTPQADLSNGNTLAMIRQIRVNNNNSSKITVTNTPQMQQPQQAQASITSSTPIMRGGPSSNGCQITTFRTMVNHNRRP | failed
2 | MDREQVVALQHQRFAAKKYDPNRRISQKDWEALVEVGRLAPSSIGLEPWKMLLLKNERMKEDLKPMAWGALFGLEGASHFVIYLARKGVTYDSDYVKKVMHEVKKRDYDTNSRFAQIIKNFQENDMKLNSERSLFDWASKQTYIQMANMMMAAAMLGIDSCPIEGYDQEKVEAYLEEKGYLNTAEFGVSVMACFGYRNQEITPKTRWKTEVIYEVIE | not failed
3 | MDRHEYEHRIINRIVENHGRDTRQLLSILREVQHEFRQVSPEAQQKVAESLGVCITQVRAVVDFYSFLSTVPLGKFDIRISDSITDHMLGSREVAAGLCRKLGIQPGEPRQDGRVGLSFTSCTGLCDQGPAGLINGYAIPRLTEDRTDQIARLINDDIPLGEWPEEFFAIKENIRLADRLLGNPVRPGEALERTLALDRETMFGEIETSQLRGRGGAGFNTAWKWRFCYEGPETAAVCPPGQPAAGIERYVVCNADEGEPGTFKDRVLLQSCADQVFEGMTVCAYLVGAKQGFLYLRGEYLYLHDQLEAVLAARRRHGLLGKSILGREGFDFDIEIRLGAGAYICGEESALIESLEGNRGVPRNRPPYPVTHGYLGKPTVVNNVETFFAAAAIAVHGGEWFAEVGTEKSKGTKLLSICGDCARPGIYEYPFGVTIRQVLEDCGAADVLGVQIGGPSGTFLSDKECDRKLAYEDLATGGSFIVFDRTRDVIGIARNFTHFFAHESCGFCTPCRVGTALLKNLLDKIAEGHGATGDLAELSRLGRFVRSASHCGLGQTAANPILSTLERYPEIYQARLKTIDFEPGFDLDGALATARRLSGRDDANAHLSQS | failed
4 | MDRSLQSTHAKLVARDIQRLTQSPTESNSFSLLGGACVSRVEIVGTIVSRDLTPKFLKFGVDDGTGCVTCVMWLNQLTSSYFSRWDPATILLLASAARKQAAQIRIGAVARVRGRVGSYRGVMQITANVAVAERDPNAEILHWLECLKLGQSCYRVRIQS | failed
5 | MDRTEQKSIIEGLLFVSGDEGIYPEQIAKVLEIEGNEVIDILEEMQKECEGAHRGLQIVQYAKVYRFATKKEHASYYQKLIEIPTAASLSQAALETLAIVAYRQPITRTEMEEIRGVKTDKALQTLVSHLLIKEMGRAEGPGRPILYGTTKEFLDTFGLKTLDDLPPLSEENEQMNEADLFFGSLQEISK | failed
6 | MDRTQFTKIFTRYYMRSTSLGIIFTLFACAIRGVNLVVYLPYVLSASTCFTYLWASRTFTLEQKHQSVVIALILGYTLTFYLYFFLGGHFLFSSLVTINLLLTMVEFGVFWSFFTYALSMTFCFYIDLITAGNDPFKLHALKEFFIQSTFLFLFNLFIYKGLRSIECYWHGIWQKQYEQVEKLERLLEIDELTGCYSRFKGNQLIEQQIQRAQPFTLLYIDLDGFKAVNDEFGHDAGDKVLQITAQRILHLLDDGQFATRIGGDEFILCLPNIEDTKELEQFQSLLHHACSAPIFIHFQNVHIGLSVGMARFPHEGSCSDSLIQHADQMMYLTKRSRT | failed
7 | MDSEGFSPSIYTDKTGHPTIGYGYNLSVYSYEGKRITKTYGLLTDILSYGWYKNLDAMRRMVILDLSYNLGLNGLLKFKQFIKAIEDKNYALAVERLQKSPYFNQVKKERQGIWKF | failed
8 | MDSENAVKTTYGEFNGKKPFAVMLLGTDTGALDRTEKRGNTDTIIVVVVNPKKKNYTMISIPRDTMADMVGDDSNDVQKINAAYSIGGAKMAMKTVSNLLNIPVKYYALVNMGGLMKLVDYVGGIYVTPPLTFTYSGFPFKKRVRQHLNGQAALAYSRMRYDDPQGDYGRQKRQREVITKLVQKLATADSLTNFSKIANNLSSNVKTNLSFQALKSILANYSDCTSSSDSDYLHGYSTYVNDAAYQIAPTSELQRISNKIRKLLGLKTATVSNRETELNTLNETAGFKFGSGETQNYTLEHHHHHH | failed
9 | MDSGFTLRAPRNDKRRNPMPAILGTGEHRYRVVENFAKLPDGWQLTDVAAVAVDSLDRVYVFNRGAHPMVVLDREGNFLRSWGEGLFSRAHGLHIDADDNLYCTDDGDHTVRKCTSDGKVLLTIGIPAKPAPFMSGEPFHRCTHTALSPKGEIYVSDGYGNARVHKFTPDGKLIKSWGEPGTDPGQFNIVHNIATDSDGWVYVADRENHRVQVFNGEGKYETQWNNLHRPCALCCCGGRSPTFVIGELGPGLDINRNVPNLGPRLSIVDAKGNRIARLGGEEGPGVASGKFLAPHGIALDSKGDIYVGEVGVTNWATSFPDQEMPAVVRATRCLQKLERVRE | failed
10 | MDSGTINIKKWVVIYPVYINSKKTVAEGRRISVSKSCENPNCIEISDCCKHLKLPSAVEIDKAYPRDFMQVGRVRVQLKREDGTLLNPAITSRKHLMQKIAELVPRHPERVKKQEAQKAKKQEPQATTSTSGTSSKSGKGGKKKR | failed
11 | MDSIKGVFTGNKDTPLEESNLPVEAFTLLRFADELKNARRLGKFKQYIVGRSSEATFADAFEKQEAVIRYLGALDATGENLQASQKQDAAKHCKCTITDVENTLSKFTWARQAHKKMTELKEGGKPLPKNMGEVFFSLCILICFFSSISSYV | failed
12 | MDSNWINCPSVFSSSSSSSRRCQSRSDLYLGGGYEDLEGEDDLKAEFICPFCAEDFDIVGLCCHIDEEHPVEAKNGVCPVCTKRNLCLFLDERFYVQRRRRLRRGGYSSTYLALKKELREANLQSLLGGSSSFTSSTNIDSDPLLSSFMFNSPSVNQSANKSATPVTVGNAATKVSIKESLKRDIQEAPLSGEDQEKAKKSEFVRGLLLSTMLEDDF | failed
13 | MDSPKRGGPRVRPSFVFCTRTCFPTPPDRMSDSESADPHSPSPTGDGQDTEPRDADGHEVARRGDTEAMEGLLEQGMDPNHTNEHGHSLLMIAAYSDQPEMADLLIEHGADPNRSDPSGSTPLMGCCFKGLAEAAEVLIEAGADVNATGARGATALMYAATYGESALVDLLLEHGADPTTTNEQGQTAAEQAAAEGHEEIAERLRQATAGA | failed
14 | MDSRAAAEPIPHVSPSPFPNPSAVNQTLEERLGLDLVQVYDWDWWGTLVQSGESLLLILSTLWCILLARVVCQKLRLHGSADLCYATEFLLVILPCILLVSVAVDYSGYIGLLMLVATLWFLRTSRALERARTRVQFDLGGNRPMCLSILRALTHLITAVCILAIDFGSFYRPYRKSRQFGAKLMDTGIGLFVFTMAMVSRRTRHWSDLRRSVIYSALPLILLGLARTVSILTLSYGQDAHEYGQHLNAFFTLGFTKFLGSLVSILARKDLHLLPLGFGLLVIHQFGLSVLGISDYVMNEDVERSSFLNANREGLVSLPGFVGLFLLSIYVNRWMVAKSLLTYSEFVRKLRRLFYLVLILWTSFVISAYEIGISRVTCNLGYVIWMLAIGSTTLCASFGAIDFAINSVMPWDPNPWEDHEKGLLSGEAVVKKRGGSVVPFTISQALNKNGLTFFLVANILTGMVNIFLRPEDRSHSESVIILLVYMFLATKLVHELLKRGIRLA | failed
15 | MDSSDSHVGQDVYVDQGLGEPDRLERLWAPYRMSYINTRSGGKQSTTAKRDPFIEVPKMSDEDGLIVARGELVYCVLNLYPYNAGHMMVIPFRKEKNLEDLSLAESAELMLFTQTAIKALKQVSNPDAVNVGLNLGKASGGSVGDHLHVHVVPRWSGDANFMTVIDGVKVLPQTLRQTRAMLAQAWGTIDGAPGTVDPTLTSAIRTAAPKEH | failed
16 | MDSVELCLPESFSLHYEEELLCRMSNKDRHIDSSCSSFIKTEPSSPASLTDSVNHHSPGGSSDASGSYSSTMNGHQNGLDSPPLYPSAPILGGSGPVRKLYDDCSSTIVEDPQTKCEYMLNSMPKRLCLVCGDIASGYHYGVASCEACKAFFKRTIQGNIEYSCPATNECEITKRRRKSCQACRFMKCLKVGMLKEGVRLDRVRGGRQKYKRRIDAENSPYLNPQLVQPAKKPYNKIVSHLLVAEPEKIYAMPDPTVPDSDIKALTTLCDLADRELVVIIGWAKHIPGFSTLSLADQMSLLQSAWMEILILGVVYRSLSFEDELVYADDYIMDEDQSKLAGLLDLNNAILQLVKKYKSMKLEKEEFVTLKAIALANSDSMHIEDVEAVQKLQDVLHEALQDYEAGQHMEDPRRAGKMLMTLPLLRQTSTKAVQHFYNIKLEGKVPMHKLFLEMLEAKV | not failed
17 | MDTAVNESLSISYNLEQFLIVLSVSLSIATLSKTVPILRKIPYTLLLVIVGMALAFVDVKLINLSPELIMEIFLPPLLFEAAWNLQWRNLKENWFPITLFATLGVVICVVGIAFPLSYWGGMELAIAFLAAAALSATDPVSVIALFKELGASKKLNTLMEGESLFNDGVAVVVFLILVGIPLGTSTFDLSVTLARFVTVIGIGVGCGLVIGFSLSLLTQRFDLPFVEQSLTLVSAYGAYILAENLGGSGVIGVVVVGMVLGNYGSRIGMNPRTRLIVSIFWEFVAFFVNSIIFLLIGDQIGLSSLSDHLNLILIAIAAVVVTRLVSVFGLSLISNKVSDQISSTHITLQEQTVLWWGGLRGSVAIAVALSVPQAIAERQAIIDIVFGVVLFTLLVQGLTTQFVLKGLDLIGDQPQRLEYAELVSRQIALRRVLAELEKTDEFPDINPERLRYKQELVQGQLQSVTDKLKLLLQEYPLLQEVANKKFDQTVLDIEAETYADLIRMGRLEENIMPLLVTLEGENVAEPS | failed
